US20030166567

Target: T1, 19-mer (SEQ ID NO:11) cleavage domain peptide
T1 chain: PRCGNPDVANYNFFPRKPK

B1: Proenzyme pro-MMP-9 (protein)
chain: APRQRQSTLVLFPGDLRTNLTDRQLAEEYLYRYGYTRVAEMRGESKSLGPALLLLQKQLSLPETGELDSATLKAMRTPRCGVPDLGRFQTFEGDLKWHHHNITYWIQNYSEDLPRAVIDDAFARAFALWSAVTPLTFTRVYSRDADIVIQFGVAEHGDGYPFDGKDGLLAHAFPPGPGIQGDAHFDDDELWSLGKGVVVPTRFGNADGAACHFPFIFEGRSYSACTTDGRSDGLPWCSTTANYDTDDRFGFCPSERLYTQDGNADGKPCQFPFIFQGQSYSACTTDGRSDGYRWCATTANYDRDKLFGFCPTRADSTVMGGNSAGELCVFPFTFLGKEYSTCTSEGRGDGRLWCATTSNFDSDKKWGFCPDQGYSLFLVAAHEFGHALGLDHSSVPEALMYPMYRFTEGPPLHKDDVNGIRHLYGPRPEPEPRPPTTTTPQPTAPPTVCPTGPPTVHPSERPTAGPTGPPSAGPTGPPTAGPSTATTVPLSPVDDACNVNIFDAIAEIGNQLYLFKDGKYWRFSEGRGSRPQGPFLIADKWPALPRKLDSVFEERLSKKLFFFSGRQVWVYTGASVLGPRRLDKLGLGADVAQVTGALRSGRGKMLLFSGRRLWRFDVKAQMVDPRSASEVDRMFPGVPLDTHDVFQYREKAYFCQDRFYWRVSSRSELNQVDQVGYVTYDILQCPED
**Q.** For B1, which “anti-activation (splicing) assay: conversion of pro-MMP-9 by stromilysin, followed by HPLC” value is on record?
**A.** Its value is “Titrating the standard splicing reaction with the 19-mer (SEQ ID NO:11) peptide prevents the conversion of pro-MMP-9 into the prodomain and the active enzyme ... Splicing can be inhibited in a dose dependent manner with micromolar 19-mer (SEQ ID NO:11) peptide”.
